From the supplement of paper PMC10724198

Columns and labels:
Saccharomyces cerevisiae [1] = assay: protein stability index of tFT-peptide fusion in wild type (PSI (0-1 scale)); higher = more stable (slower turnover); settings: genetic background: wild type
Protocol: (§1)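 MPS profiling in S. cerevisiae of two library types built from selected 12-aa C-degron peptides (IN1, IN2, LN1, LN3, VN2, R1-R5, W1-W3, Atg1 and Rpa12 C-termini): saturation mutagenesis libraries and C-terminal +1 capping libraries (13 aa). Each peptide is fused to the C-terminus of a sfGFP-mCherry timer, after a GGGS linker. Cells are FACS-sorted into 8 mCherry/sfGFP bins and sequenced. PSI runs from 0 (unstable) to 1 (stable), measured once in wild type and in the das1Δ or doa10Δ background.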

Saccharomyces cerevisiae [2] = assay: protein stability index of tFT-peptide fusion in deletion strain of DAS1 (PSI (0-1 scale)); higher = more stable (slower turnover)
Protocol: as §1
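For protein stability index of tFT-peptide fusion in deletion strain of DAS1 in this document: PSI is a weighted mean of each variant's read distribution over the sorted stability bins, computed only for variants having over 10 reads in total.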
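For protein stability index of tFT-peptide fusion in wild type in this document: PSI derived as read-weighted mean over the 8 sorting bins, only variants exceeding 10 total reads kept, mCherry placed adjacent to the peptide and sfGFP distal.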

Row | Sequence | protein stability index (Saccharomyces cerevisiae [1]) | protein stability index (Saccharomyces cerevisiae [2])
1 | CTSCGYKFRTNS | 0.465 | 0.697
2 | CTSCGYKFRTTN | 0.191 | 0.699
3 | CTSCGYKFRTYN | 0.31 | 0.696
4 | CTSCGYKLRTNN | 0.471 | 0.678
5 | CTSCGYKQRTNN | 0.538 | 0.688
6 | CTSCGYKRRTNN | 0.477 | 0.683
7 | CTSDGYKFRTNN | 0.517 | 0.669
8 | CTSLGYKFRTNN | 0.17 | 0.689
9 | CTSRGYKFRTNN | 0.215 | 0.685
10 | CYSCGYKFRTNN | 0.168 | 0.708
11 | DKHKKGQKQKIN | 0.113 | 0.602
12 | FMMRWTFRYWVN | 0.0399 | 0.359
13 | FQMRWTFRYWVN | 0.0681 | 0.46
14 | FRMRWTFRYWVN | 0.0353 | 0.584
15 | FSKRWTFRYWVN | 0.0512 | 0.596
16 | FSMEWTFRYWVN | 0.112 | 0.425
17 | FSMRNTFRYWVN | 0.0817 | 0.578
18 | FSMRSTFRYWVN | 0.096 | 0.608
19 | FSMRWCFRYWVN | 0.0796 | 0.554
20 | FSMRWEFRYWVN | 0.0711 | 0.471
21 | FSMRWNFRYWVN | 0.0584 | 0.536
22 | FSMRWTFDYWVN | 0.618 | 0.577
23 | FSMRWTFHYWVN | 0.048 | 0.456

Row | Sequence | protein stability index (Saccharomyces cerevisiae [1]) | protein stability index (Saccharomyces cerevisiae [2])
24 | FSMRWTFREWVN | 0.0594 | 0.57
25 | FSMRWTFRRWVN | 0.11 | 0.623
26 | FSMRWTFRWWVN | 0.0591 | 0.462
27 | FSMRWTFRYLVN | 0.0662 | 0.479
28 | FSMRWTFRYWNN | 0.158 | 0.549
29 | FSMRWTFRYWVM | 0.136 | 0.482
30 | FSMRWTFRYWVNP | 0.533 | 0.544
31 | FSMRWTFRYWVR | 0.416 | 0.446
32 | FSMRWTFWYWVN | 0.0405 | 0.416
33 | FSMRWTNRYWVN | 0.0731 | 0.592
34 | FSMRWTRRYWVN | 0.101 | 0.585
35 | FSMSWTFRYWVN | 0.0567 | 0.493
36 | GTSCGYKFRTNN | 0.261 | 0.659
37 | HSLAASFWRVVG | 0.121 | 0.691
38 | KKHKAGQKQKIN | 0.0948 | 0.579
39 | KKHKKGCKQKIN | 0.0767 | 0.598
40 | KKHKKGDKQKIN | 0.137 | 0.599
41 | KKHKKGLKQKIN | 0.0663 | 0.596
42 | KKHKKGQKPKIN | 0.574 | 0.626
43 | KKHKKGQKQKDN | 0.607 | 0.638
44 | KKHKKGQKQKINL | 0.652 | 0.663
45 | KKHKKGQKQKKN | 0.577 | 0.843
46 | KKHKKGQKQKMN | 0.0838 | 0.533

Row | Sequence | protein stability index (Saccharomyces cerevisiae [1]) | protein stability index (Saccharomyces cerevisiae [2])
47 | KKHKKGQKQKNN | 0.476 | 0.643
48 | KKHKKGQKQSIN | 0.673 | 0.577
49 | KKHKKTQKQKIN | 0.0737 | 0.677
50 | KKHKVGQKQKIN | 0.0595 | 0.567
51 | KKHPKGQKQKIN | 0.14 | 0.684
52 | KKHSKGQKQKIN | 0.0645 | 0.576
53 | KKILRQKMNHQN | 0.159 | 0.688
54 | KKPKKGQKQKIN | 0.174 | 0.591
55 | KKSKKGQKQKIN | 0.0679 | 0.576
56 | KKTKKGQKQKIN | 0.113 | 0.583
57 | KKVKKGQKQKIN | 0.122 | 0.631
58 | KPHKKGQKQKIN | 0.0908 | 0.625
59 | KQHKKGQKQKIN | 0.104 | 0.621
60 | KTHKKGQKQKIN | 0.0924 | 0.684
61 | LCILRQKMNHQN | 0.115 | 0.655
62 | LDILRQKMNHQN | 0.121 | 0.707
63 | LEILRQKMNHQN | 0.161 | 0.672
64 | LFVYLSCVACIN | 0.0334 | 0.0251
65 | LKCLRQKMNHQN | 0.205 | 0.682
66 | LKELRQKMNHQN | 0.217 | 0.673
67 | LKIGRQKMNHQN | 0.414 | 0.674
68 | LKILGQKMNHQN | 0.365 | 0.678
69 | LKILRHKMNHQN | 0.194 | 0.693

Row | Sequence | protein stability index (Saccharomyces cerevisiae [1]) | protein stability index (Saccharomyces cerevisiae [2])
70 | LKILRMKMNHQN | 0.243 | 0.71
71 | LKILRQKFNHQN | 0.202 | 0.668
72 | LKILRQKMDHQN | 0.613 | 0.673
73 | LKILRQKMFHQN | 0.206 | 0.654
74 | LKILRQKMNHKN | 0.484 | 0.678
75 | LKILRQKMNHLN | 0.192 | 0.674
76 | LKILRQKMNHMN | 0.191 | 0.605
77 | LKILRQKMNHQD | 0.622 | 0.667
78 | LKILRQKMNHQG | 0.215 | 0.656
79 | LKILRQKMNHTN | 0.197 | 0.672
80 | LKILRQKMQHQN | 0.238 | 0.716
81 | LKILRQKVNHQN | 0.282 | 0.661
82 | LKILVQKMNHQN | 0.218 | 0.662
83 | LKIQRQKMNHQN | 0.23 | 0.676
84 | LKPLRQKMNHQN | 0.172 | 0.682
85 | LKVYLSCVACIN | 0.0444 | 0.14
86 | LKYLRQKMNHQN | 0.17 | 0.629
87 | LRILRQKMNHQN | 0.148 | 0.666
88 | LVAYLSCVACIN | 0.0244 | 0.156
89 | LVGYLSCVACIN | 0.0848 | 0.342
